Measured values as given in patent US20250276050A1.

B1: cIL-13-His6 (canine IL-13 with start methionine and C-terminal His6-tag, expressed in E. coli) (ligand)
chain: MSPSPVTPSPTLKELIEELVNITQNQASLCNGSMVWSVNLTAGMYCAALESLINVSDCSAIQRTQRMLKALCSQKPAAGQISSERSRDTKIEVIQLVKNLLTYVRGVYRHGNFRHHHHHH

Key:
[1] = biological target: heterodimeric IL-1RL1/IL-1RAcP on the surface of HEK-Blue IL-33 cells (human) (UniProt Q01638); assay: cell-based or functional assay
[2] = biological target: receptor subunits IL4Rα and IL-13Rα1 naturally expressed on HEK-Blue IL-4/IL-13 cells (UniProt P24394); assay: cell-based or functional assay

Row | Molecule | SEAP reporter enzyme readout, EC50 (HEK-Blue IL-33 cells) [1] | SEAP reporter enzyme readout, EC50 (HEK-Blue IL-4/IL-13 cells) [2]
1 | His6-cIL-33-CS (amino acids 110-263 of dog IL-33 with the 3 cysteines replaced by serine, start methionine and N-terminal His6-tag, expressed in E. coli) (from UniProt O97863 110-263) (ligand) | 10 ng/mL | 
2 | B1 |  | 2 ng/mL
